Assay results from patent publication US20240190931A1, “MAGEC2 IMMUNOGENIC PEPTIDES, BINDING PROTEINS RECOGNIZING MAGEC2 IMMUNOGENIC PEPTIDES, AND USES THEREOF” (TScan Therapeutics, Inc., priority 2021, published 2024).
“Also recorded” adds a separate entry of the source.

Experiments:
[1] = target: T1, MAGEC2 peptide on HLA-B*07:02 (human); experiment: killing
T1 peptide: RAREFMELL

[2] = target: T2, MAGEC2 peptide on HLA-A*24:02 (human); experiment: killing
T2 peptide: VGPDHFCVF

[3] = test system: MAGEC2-expressing melanoma cell lines; experiment: Incucyte cytotoxicity assay on NucLight Red melanoma cell lines; format: cell-based, human; conditions: E:T ratio of 2:1; versus MHC-mismatched control TCR or no T cells; FIG. 6
Protocol: Melanoma lines were purchased from ATCC (Manassas, VA) and HEK293T cells were originally from Takara Bio (Shiga, Japan). All media were supplemented with 10% FBS and 1% penicillin and incubated at 37° C. in 5% CO2. A101D, A2058, HT144, and HEK293T cells were maintained in complete DMEM. SK-MEL-5 was cultured in complete EMEM, whereas HMCB required complete EMEM with 10 mM HEPES. Untransduced cancer cells were maintained in preparation for the T cell recognition assay, and 10^6 cells of each cell line were introduced with Incucyte® NucLight™ Red lentivirus reagent (Sartorius, Gottingen, Germany). Positively-labeled cells were selected using 1.5 ug/mL of puromycin over 72 hours.
Melanoma cells selected for Incucyte® NucLight™ analysis were seeded into 96-well flat bottom plates (Corning, Flintshire, UK) at 10^4 cells, except for HMCB cells, which were plated at 5×10^3 cells. On the same day, T cells were thawed, washed in complete RPMI-1640, and allowed to rest overnight in medium with 50 U/mL IL-2 (PeproTech), 5 ng/mL IL-7, and 5 ng/mL IL-15 (R&D Systems). All cells were rested for 16 hours at 37° C. in 5% CO2. A two-fold serial dilution of the T cells was performed for the effector to target ratios, with the highest E:T at 4:1, and the lowest at 1:2. […] Imaging utilized a 4× objective lens and data were analyzed using the Incucyte® Basic Software. […]

RAR peptide-pulsed cells = experiment: T cell recognition assay: IFNγ release on co-culture with RAR peptide-pulsed wild-type HEK293T cells; format: cell-based, human; conditions: wild-type HEK293T cells pulsed with serial dilutions of RAR peptide, co-cultured with TCR-transduced T cells; FIG. 4A
Protocol: (§1) To characterize the recognition of the identified peptide by a TCR, wild-type HEK293 cells were pulsed with serial dilutions of peptide and co-cultured with T cells transduced with the TCR of interest. After 24 hours, cultures were mixed by pipetting, and centrifuged at 2,000 rpm for 2 minutes. Supernatants were collected and measured for IFNγ secretion using a human IFNγ 3rd generation single-plex assay (Protein Simple) following the manufacturer's instructions. Alternatively, monoallelic HEK293T cells expressing a granzyme-activated fluorescent reporter were pulsed with serial dilutions of peptide and co-cultured with T cells transduced with an individual TCR of interest. After 4 hours, the cultures were harvested by pipetting and fluorescence of the reporter was detected using a CytoFLEX™ S instrument (Beckman Coulter).

[4] = target: T3, RAR peptide-HLA-B*07:02 (pMHC) complex (Homo sapiens, UniProt P01889+Q9UBF1); experiment: Peptide pulse-based cytotoxicity assay with granzyme-activated fluorescent reporter in HLA-B*07:02 monoallelic HEK293T cells; format: cell-based; conditions: HLA-B*07:02 monoallelic HEK293T reporter cells pulsed with RAR peptide, co-cultured with TCR-transduced T cells; FIG. 4B
T3 construct: expressed in transfected cells; host or cells: MHC-null HEK293T cells engineered to express HLA-B*07:02 (monoallelic reporter cells)
Protocol: as §1

[5] = test system: melanoma cells that express MAGEC2; experiment: Reactivity to melanoma cell lines measured by IFNγ release; format: cell-based, human
Protocol: To detect reactivity to melanoma cell lines, wild-type melanoma cell lines were seeded at 6×10^4 cells in a 96-well flat bottom plate and rested for 16 hours at 37° C. in 5% CO2. On the following day, T cells were thawed, washed in complete RPMI-1640 medium, and added to the wells for an effector to target ratio of 1:1. The co-culture was incubated for 16 hours. Cells were then harvested by pipetting, transferred to V-bottom 96-well plates, and centrifuged at 2,000 rpm for 2 minutes. The supernatant was collected for IFNγ measurement using a human IFNγ 3rd generation single-plex assay (Protein Simple). For flow cytometry analysis (Cytoflex S™ instrument, Beckman Coulter), cell pellets were washed with FACS buffer (PBS, 0.5% BSA, 2 mM EDTA) and stained for activation-induced markers, including PE-conjugated anti-CD137 (Miltenyi), AF647-conjugated anti-CD69 (Biolegend), and BV421-conjugated anti-CD8 (BioLegend).
Melanoma lines were purchased from ATCC (Manassas, VA) and HEK293T cells were originally from Takara Bio (Shiga, Japan). All media were supplemented with 10% FBS and 1% penicillin and incubated at 37° C. in 5% CO2. A101D, A2058, HT144, and HEK293T cells were maintained in complete DMEM. SK-MEL-5 was cultured in complete EMEM, whereas HMCB required complete EMEM with 10 mM HEPES. […]

VGP peptide-pulsed cells = experiment: IFP+ reporter-based cell killing of VGP peptide-pulsed HEK293T cells; design: species or system human; conditions: HEK293T cells pulsed with serial dilutions of VGP peptide, co-cultured with TCR-transduced T cells; FIG. 9A
Protocol: as §1
Data shown in FIGS. 7-9 were generated according to similar materials, methods, and experiments as described above.

B1: MAGEC2 TCR 8-3 (TCR, V domains shown)
Valpha: ILNVEQSPQSLHVQEGDSTNFTCSFPSSNFYALHWYRWETAKSPEALFVMTLNGDEKKKGRISATLNTKEGYSYLYIKGSQPEDSATYLCASGSGGATNKLIFGTGTLLAVQP
Vbeta: GEEVAQTPKHLVRGEGQKAKLYCAPIKGHSYVFWYQQVLKNEFKFLISFQNENVFDETGMPKERFSAKCLPNSPCSLEIQATKLEDSAVYFCASSQSRSLRGTEAFFGQGTRLTVV
binding result [1]: recognises

B2: MAGEC2 TCR 4-58 (TCR, V domains shown)
Valpha: KNQVEQSPQSLIILEGKNCTLQCNYTVSPFSNLRWYKQDTGRGPVSLTIMTFSENTKSNGRYTATLDADTKQSSLHITASQLSDSASYICVVSARNAGNMLTFGGGTRLMVKP
Vbeta: EAQVTQNPRYLITVTGKKLTVTCSQNMNHEYMSWYRQDPGLGLRQIYYSMNVEVTDKGDVPEGYKVSRKEKRNFPLILESPSPNQTSLYFCACASSFGTSGRGEQFFGPGTRLTVL
binding result [2]: recognises

B3: TCR 8-3: T cell receptor (TRAV24*01/TRAJ32*02; TRBV16*01/TRBJ1-1*01) recognizing MAGEC2 RAR peptide presented by HLA-B*07:02; tested in transduced T cells (protein)
TCR alpha: ILNVEQSPQSLHVQEGDSTNFTCSFPSSNFYALHWYRWETAKSPEALFVMTLNGDEKKKGRISATLNTKEGYSYLYIKGSQPEDSATYLCASGSGGATNKLIFGTGTLLAVQPNIQNPEPAVYQLKDPRSQDSTLCLFTDFDSQINVPKTMESGTFITDKCVLDMKAMDSKSNGAIAWSNQTSFTCQDIFKETNATYPSSDVPCDATLTEKSFETDMNLNFQNLLVMVLRILLLKVAGFNLLMTLRLWSS
TCR beta: GEEVAQTPKHLVRGEGQKAKLYCAPIKGHSYVFWYQQVLKNEFKFLISFQNENVFDETGMPKERFSAKCLPNSPCSLEIQATKLEDSAVYFCASSQSRSLRGTEAFFGQGTRLTVVEDLRNVTPPKVSLFEPSKAEIANKQKATLVCLARGFFPDHVELSWWVNGKEVHSGVCTDPQAYKESNYSYCLSSRLRVSATFWHNPRNHFRCQVQFHGLSEEDKWPEGSPKPVTQNISAEAWGRADCGITSASYQQGVLSATILYEILLGKATLYAVLVSTLVVMAMVKRKNS
Killing of MAGEC2-expressing melanoma cell lines (red object count over time) [3]: demonstrated to kill cancer cells that express MAGEC2; also recorded: kills MAGEC2-expressing melanoma cell lines | Recognition of RAR peptide-pulsed cells (IFNγ release) (RAR peptide-pulsed cells): recognizes | Killing of RAR peptide-pulsed cells (granzyme-activated fluorescent reporter) [4]: demonstrated to kill cells expressing RAR peptide-HLA-B*07:02 (pMHC) complex; also recorded: kills | Relation of TCR reactivity to MAGEC2 expression of melanoma cell lines ([5]; IFNγ release versus MAGEC2 expression, FIG. 5E): corresponds to MAGEC2 expression | Recognition of melanoma cell lines (IFNγ release) ([5]; melanoma cell lines, E:T 1:1, 16 hours, FIG. 5D): recognizes melanoma cells that express MAGEC2

B4: TCR 4-58: T cell receptor (TRAV10/TRAJ39; TRBV27) recognizing MAGEC2 VGP peptide presented by HLA-A*24:02; tested in transduced T cells (protein)
TCR alpha: RGNGKNQVEQSPQSLIILEGKNCTLQCNYTVSPFSNLRWYKQDTGRGPVSLTIMTFSENTKSNGRYTATLDADTKQSSLHITASQLSDSASYICVVSARNAGNMLTFGGGTRLMVKPHIQNPEPAVYQLKDPRSQDSTLCLFTDFDSQINVPKTMESGTFITDKCVLDMKAMDSKSNGAIAWSNQTSFTCQDIFKETNATYPSSDVPCDATLTEKSFETDMNLNFQNLLVMVLRILLLKVAGFNLLMTLRLWSS
TCR beta: EAQVTQNPRYLITVTGKKLTVTCSQNMNHEYMSWYRQDPGLGLRQIYYSMNVEVTDKGDVPEGYKVSRKEKRNFPLILESPSPNQTSLYFCACASSFGTSGRGEQFFGPGTRLTVLEDLRNVTPPKVSLFEPSKAEIANKQKATLVCLARGFFPDHVELSWWVNGKEVHSGVCTDPQAYKESNYSYCLSSRLRVSATFWHNPRNHFRCQVQFHGLSEEDKWPEGSPKPVTQNISAEAWGRADCGITSASYQQGVLSATILYEILLGKATLYAVLVSTLVVMAMVKRKNS
Recognition and killing of VGP peptide-pulsed cells (IFP+ reporter-based cell killing) (VGP peptide-pulsed cells): recognizes and kills VGP peptide-pulsed cells
